# Substrate: CC(=O)Oc1ccc([N+](=O)[O-])cc1
# Test: purified protein
# Type: biochemical, Pseudideonella sakaiensis
# Details: 50 mM Na2HPO4 pH 7.5, 30 °C, 5% v/v DMSO, 10 nM enzyme, 0-5.0 mM substrate
protein,measurement,value
"IsPETase-WT (Pseudideonella sakaiensis) (protein, linear wild-type enzyme, synthetic gene in pET-28a(+) or pET-21b(+), E. coli Shuffle T7 Express, Ni-NTA and SEC; monomer) QTNPYARGPNPTAASLEASAGPFTVRSFTVSRPSGYGAGTVYYPTNAGGTVGAIAIVPGYTARQSSIKWWGPRLASHGFVVITIDTNSTLDQPSSRSSQQMAALRQVASLNGTSSSPIYGKVDTARMGVMGWSMGGGGSLISAANNPSLKAAAPQAPWDSSTNFSSVTVPTLIFACENDSIAPVNSSALPIYDSMSRNAKQFLEINGGSHSCANSGNSNQALIGKKGVAWMKRFMDNDTRYSTFACENPNSTRVSDFRTANCS",Km,2700 ± 300 µM
